Results taken from patent US20210380678A1 (SURROZEN OPERATING, published 2021).
Numbering of substitutions follows the chain as printed. Numbers in names are those of the source.

How the values were obtained:
[1] = biological target: T1, Fc portion of human IgG1-fused LGR5-ECD (R&D systems) (human, UniProt O75473 22-557, limits assumed); assay: BLI (Octet), LGR5-ECD-Fc on AHC sensor
T1 construct: extracellular domain; Bought reagent; also called LGRS; recombinant LGR5 protein; not shown: Fc portion of human IgG1
T1 sequence (looked up): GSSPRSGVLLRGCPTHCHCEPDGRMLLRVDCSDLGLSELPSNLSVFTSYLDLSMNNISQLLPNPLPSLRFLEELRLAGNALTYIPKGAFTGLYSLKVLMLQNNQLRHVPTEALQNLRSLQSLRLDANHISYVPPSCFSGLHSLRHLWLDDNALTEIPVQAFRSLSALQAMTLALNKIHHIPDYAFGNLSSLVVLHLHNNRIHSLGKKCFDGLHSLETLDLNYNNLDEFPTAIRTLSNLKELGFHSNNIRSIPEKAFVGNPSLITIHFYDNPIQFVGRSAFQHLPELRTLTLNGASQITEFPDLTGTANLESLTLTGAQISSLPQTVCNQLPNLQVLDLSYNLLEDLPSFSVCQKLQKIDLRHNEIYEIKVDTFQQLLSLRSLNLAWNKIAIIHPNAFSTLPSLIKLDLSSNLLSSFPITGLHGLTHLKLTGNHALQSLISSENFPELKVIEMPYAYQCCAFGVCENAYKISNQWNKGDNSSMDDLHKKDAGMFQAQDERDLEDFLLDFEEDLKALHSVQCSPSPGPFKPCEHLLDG
Protocol: (§1) Affinity measurement: Binding kinetics of the RSPO-derived proteins to LGRS, RNF43, or ZNRF3, and binding of the anti-ASGR Fabs to human and/or mouse ASGR1 were determined by bio-layer interferometry (BLI) using Octet Red 96 (PALL ForteBio, Fremont, CA) instruments at 30° C., 1000 rpm with either streptavidin (SA) or anti-hIgG Fc capture (AHC) biosensors. […] Following capture of ECDs of RNF43, ZNRF3 or LGRS, the biosensors were dipped into wells containing the relevant test molecules at 7 different concentrations in running buffer plus a well with only running buffer as a reference channel. KD was determined by steady-state analysis based on the average responses between 140 to 145 seconds of association phase, for binding to LGRS, RNF43, and ZNRF3. For the binding to ASGR, KD was determined by curve model fitting using the Octet® Red data analysis software (Fortebio)

[2] = biological target: T2, human RNF43 extracellular domain (hRNF43 ECD) (human, UniProt Q68DV7 44-197, biotinylated (His-Avi tag)); assay: BLI (Octet), biotinylated RNF43 ECD on SA sensor
T2 construct: Expressed with a His-Avi tag at the N-terminus and biotinylated; also called human RNF3 (Q44-D198)
T2 sequence: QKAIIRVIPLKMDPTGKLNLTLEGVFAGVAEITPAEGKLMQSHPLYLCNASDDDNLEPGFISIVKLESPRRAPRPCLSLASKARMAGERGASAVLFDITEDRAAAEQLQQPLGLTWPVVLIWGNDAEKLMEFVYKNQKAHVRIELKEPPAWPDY
Protocol: as §1

[3] = biological target: T3, human ZNRF3 extracellular domain (hZNRF3 ECD) (human, UniProt Q9ULT6 56-219, biotinylated (His-Avi tag)); assay: BLI (Octet), biotinylated ZNRF3 ECD on SA sensor
T3 construct: Expressed with a His-Avi tag at the N-terminus and biotinylated; also called ZRNF3
T3 sequence: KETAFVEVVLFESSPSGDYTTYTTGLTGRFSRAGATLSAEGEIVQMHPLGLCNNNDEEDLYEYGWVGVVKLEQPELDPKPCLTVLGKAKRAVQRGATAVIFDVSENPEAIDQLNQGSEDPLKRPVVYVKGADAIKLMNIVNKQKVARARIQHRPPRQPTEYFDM
Protocol: as §1

[4] = biological target: T4, human ASGR1 extracellular domain (hASGR1 ECD) (human, UniProt P07306 62-291, biotinylated (His-Avi tag)); assay: BLI, Fab on hASGR1; KD only in the figure
T4 construct: His-Avi tag at the N-terminus, biotinylated for BLI; also called human ASGR1 ECD
T4 sequence: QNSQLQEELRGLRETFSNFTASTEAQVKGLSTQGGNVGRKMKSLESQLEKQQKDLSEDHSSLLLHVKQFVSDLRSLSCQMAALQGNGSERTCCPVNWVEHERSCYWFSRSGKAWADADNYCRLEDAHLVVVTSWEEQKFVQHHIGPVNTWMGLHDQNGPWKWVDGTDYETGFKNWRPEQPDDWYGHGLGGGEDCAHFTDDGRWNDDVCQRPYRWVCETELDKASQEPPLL

[5] = biological target: T2, human RNF43 extracellular domain …; assay: ELISA (binding specificity)
[6] = biological target: T3, human ZNRF3 extracellular domain …; assay: ELISA (binding specificity)
[7] = biological target: human transferrin receptor 1 (TFR1), on cells (human, UniProt P02786 1-760); assay: cell-based or functional assay
Chain of human transferrin receptor 1 (TFR1), on cells (P02786 whole entry, the tested form may be a part): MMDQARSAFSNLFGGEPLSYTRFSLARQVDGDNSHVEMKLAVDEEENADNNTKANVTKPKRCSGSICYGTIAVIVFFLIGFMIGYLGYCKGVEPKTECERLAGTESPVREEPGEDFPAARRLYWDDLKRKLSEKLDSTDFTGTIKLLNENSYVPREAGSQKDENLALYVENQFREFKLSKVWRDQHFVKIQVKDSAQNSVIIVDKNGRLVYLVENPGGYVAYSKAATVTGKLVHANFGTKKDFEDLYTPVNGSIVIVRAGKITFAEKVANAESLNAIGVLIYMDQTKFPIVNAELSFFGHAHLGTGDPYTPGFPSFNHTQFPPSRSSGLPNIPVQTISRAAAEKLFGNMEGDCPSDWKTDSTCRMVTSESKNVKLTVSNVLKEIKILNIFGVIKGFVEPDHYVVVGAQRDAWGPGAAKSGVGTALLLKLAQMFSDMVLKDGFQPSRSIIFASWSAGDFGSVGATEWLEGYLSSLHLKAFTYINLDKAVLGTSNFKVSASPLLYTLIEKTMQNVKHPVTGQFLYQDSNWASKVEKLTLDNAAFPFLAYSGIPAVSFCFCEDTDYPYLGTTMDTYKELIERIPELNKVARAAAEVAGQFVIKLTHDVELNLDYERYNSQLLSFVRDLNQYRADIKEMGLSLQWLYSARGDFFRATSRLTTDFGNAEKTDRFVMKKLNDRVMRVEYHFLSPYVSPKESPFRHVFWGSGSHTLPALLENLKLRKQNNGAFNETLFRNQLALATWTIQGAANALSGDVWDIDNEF

[8] = biological target: T3, human ZNRF3 extracellular domain …; assay: BLI (Octet) KD grade: * = KD >= 1 uM
Protocol: (§2) Binding characterization of recombinant Fabs or IgG' s was carried out using Bio-Layer Interferometry (BLI) using the Octet Red 96 platform (PALL ForteBio, Fremont, Calif.) with streptavidin (SA) coated biosensors (PALL ForteBio,). […] Following immobilization, sensors were dipped into samples containing test molecules at seven concentrations. Values for KD were determined by fitting the resulting data with a 1:1 binding model.

[9] = biological target: T3, human ZNRF3 extracellular domain …; assay: BLI (Octet), biotinylated antigen on SA sensor, 1:1 fit
Protocol: as §2

B1: αGFP-RSPO2-5mut (anti-GFP, RSPO2 (R65A/R69A/Q70A/F105A/F109A)) (other)
chain: QVQLVESGGGLVQPGGSLRLSCAASGFTFSRYGMHWVRQAPGKGLEWVSGISSIGSNTYYADSVKGRFTISRDNSKNTLYLQMNSLRAEDTAVYYCARWYKTYIDVWGQGTLVTVSSGGGGSGGGGSGGGGSDIELTQPPSVSVAPGQTARISCSGDNLGKKYVYWYQQKPGQAPVLVIYGDDERPSGIPERFSGSNSGNTATLTISGTQAEDEADYYCASYDSSHILIVFGGGTKLTVLGSGGSNPICKGCLSCSKDNGCSRCQQKLFFFLRAEGMAAYGECLHSCPSGYYGHRAPDMNRCARCRIENCDSCRSKDACTKCKVGFYLHRGRCFDECPDGFAPLEETMECVEGGDYKDDDDKGSHHHHHHHH
notes: scFv against GFP fused to the RSPO2 Fu1-Fu2 fragment with five mutations; FLAG-His tag; also called αGFP-RSPO2-Smut
B1: no binding [1].

B2: αGFP-RSPO2-RA (anti-GFP, RSPO2 (F105R/F109A)) (other)
chain: B1 chain with A274R, A278R, A279Q
notes: scFv against GFP fused to the RSPO2 Fu1-Fu2 fragment with F105R/F109A; FLAG-His tag
B2: no binding [1]; binds [2]; binds [3].

B3: 024S-D03 Fab (Fab, V domains shown)
VH: QVQLQQSGPGLVKPSQTLSLTCAISGDSVSSNSAAWNWMRQSPSRGLEWLGRTYYRSKWYNDYAVSVKSRMTINPDTSRNQFSLQLNSVTLEDTAVYYCARWNHEEHYFDYWGQGTLVTVSS
VL: EIVLTQSPATLSFSPGERATLSCRASQSVGSYLAWYQQRPGQAPRPLIYDATNRATGIPTRFSGSGSGTDFTLTISSLEPEDFATYYCQHRRTFGRGTKLEIK
notes: Tested as Fab, identified by phage display
B3: binds [4].

B4: 024S-A04 Fab (Fab, V domains shown)
VH: QVQLQQSGPGLVKPSQTLSLTCAISGDSVSSNSVAWNWMRQSPSRGLEWLGRTYYRSKWYYDYAVSVKSRITINPDTSKNQFSLQLNSVTPEDTAVYYCASWTRGAFDIWGQGTMVTVSS
VL: B3 VL with E1D, V3Q
notes: as for B3
B4: binds [4].

B5: 024S-E03 Fab (Fab, V domains shown)
VH: B3 VH with D27A, M39I, M71I, R79K, L91P, E92G
VL: B3 VL with E1D, I2V, L4M
notes: as for B3
B5: binds [4].

B6: 020S-D07 (antibody, V domains shown)
VH: QVQLVQSGAEVKKPGSSVKVSCKASGGTFSNTDINWVRQAPGQGLEWMGGIIPIFGTANYAQKFQGRVTITADESTSTAYMELSSLRSEDTAVYYCVGGRSGWIWYFDLWGRGTLVTVSS
VL: DIQMTQSPSSLSASVGDRVTITCRASQSISRWLAWYQQKPGKAPKLLIYDASSLETGVPSRFSGSGSGTDFTLTISSLQPEDFATYYCQQAYSFPWTFGQGTKVEIK
B6: binds [5]; binds [6].

B7: αTFR1-RSPO2-RA (anti-TFR1, RSPO2 (F105R/F109A)) (other)
chain: QVQLQQSGPELVRPGVSVKISCKGSGYTFTDYAMHWVKQSHAKSLEWIGGISTYFGRTNYNQKFKGRATMTVDKSSSTAYMELARLTSEDSALYYCARGLSGNYVMDYWGQGTSVTVSSGGGGSGGGGSGGGGSDIVLFQSPASLAVSLGQRATISCRASESVDDYGNSFMHWYQQKPGQPPKLLIYRASNLESGIPARFSGSGSRTDFTLTINPVEADDVATYYCQQSNEAPPTFGGGTKLEIRGSGGSNPICKGCLSCSKDNGCSRCQQKLFFFLRREGMRQYGECLHSCPSGYYGHRAPDMNRCARCRIENCDSCRSKDACTKCKVGFYLHRGRCFDECPDGFAPLEETMECVEGGDYKDDDDKGSHHHHHHHH
notes: FLAG-His tag; also called αTFR-RSPO2-RA
For B7, the “potency in the HEK293 STF reporter assay with Wnt sources” value [7] was ~20 fold and the binding result [1] was “no binding”.

B8: αTFR1-RSPO2-WT (anti-TFR1, RSPO2 wild type) (other)
chain: B7 chain with R319F, A323F
B8 was tested, and the “EC50 in the HEK293 STF reporter assay with Wnt sources” value [7] was ~20 fold and the “potency in the HEK293 STF reporter assay with Wnt sources” value [7] was ~400 fold.

B9: αTFR1-RSPO2-5mut (anti-TFR1, RSPO2 (R65A/R69A/Q70A/F105A/F109A)) (other)
chain: B7 chain with R279A, R283A, Q284A
notes: FLAG-His tag; also called αTFR1-RSPO2-Smut; αTFR-RPOS-5mut
B9: no binding [1]; no binding [2]; no binding [3].

B10: 020S-F07 (antibody, V domains shown)
VH: EVQLLESGGGLVQPGGSLRLSCAASGFTFSNYAMGWVRQAPGKGLEWVSYISRSSSTIYYADSVKGRFTISRDNSKNTLYLQMNSLRAEDTAVYYCARRRDGYNWGYWGQGTLVTVSS
VL: DIQMTQSPSSLSASVGDRVTITCRASQDISNSLNWYQQKPGKAPKLLIYAASTLQSGVPSRFSGSGSGTDFTLTISSLQPEDFATYYCQQSYSPPHTFGGGTKVEIK
B10: binds [5]; binds [6].

B11: 028S-E10 (antibody, V domains shown)
VH: QVQLVQSGAEVKKPGASVKVSCKASGYTFTSYYMHWVRQAPGQGLEWMGWINPNTGGTKSAQKFQGRVTMTRDTSTSTVYMELSSLRSEDTAVYYCARVLRGSLGFDYWGQGTLVTVSS
VL: B10 VL with N31R, S32Y, N34A, L54V, Q55E, S93R, P94S, H96Y, G100Q, V104L
In the case of B11, the KD [8] is reported as ≥ 1 µM and the Kd [9] is reported as 4.16 µM.
